Experimental data: paper PMC6226484

Biological target: Avi-barnase (G34C/H102A), biotinylated, labeled with Alexa 488
Assay: FRET or BRET; single-molecule FRET; donor-labeled barnase immobilised on PEG-coated glass via biotin-NeutrAvidin, acceptor-labeled barstar (20 nM) in solution; 10 mM Tris pH 7, 0 mM NaCl and higher (printed kA at 0 mM NaCl); 22 °C; illumination 0.3 μW; two-state maximum likelihood analysis with correction for acceptor photobleaching

Substance “Cys-barstar, labeled with Alexa 647 (natural protein)” has a kon of 1e+08 M⁻¹ s⁻¹.
